Results as given in US20240182941A1, “XYLOSYLATED STEVIOL GLYCOSIDES AND ENZYMATIC METHODS FOR PRODUCTION” (CARGILL, INCORPORATED, priority 2021, published 2024).
Several values for one entry are separate records, joined by “and”; a condition that tells them apart may be missing. Identical values can stand only once.

Assay: Glycosyltransferase assay of SEQ ID NO:1 homologs and variants (IVTT enzymes) on Reb A
Assay type: biochemical
Settings: Reb A acceptor; for Activity relative to the activity of SEQ ID NO:1, Glucose: UDP-glucose; for Activity relative to the activity of SEQ ID NO:1, Glucose / Activity relative to the activity of SEQ ID NO:1, Xylose: SEQ ID1 = 100%; for Activity relative to the activity of SEQ ID NO:1, Xylose: UDP-xylose
Method: Candidate xylosyltransferase enzymes are produced in vitro using the PURExpress In Vitro Protein Synthesis kit from New England Biolabs (NEB #E6800) according to the manufacturer's instructions, including 250 ng plasmid DNA and the addition of 20 units RNase Inhibitor, Murine (NEB #M0314).
The steviol glycoside (SG) ‘acceptors’ Reb A was tested using 4 glucosyltransferase enzymes (SEQ ID NOs: 1-4) homologous to glucosyltransferases in SG biosynthesis in stevia leaves.
UDP-xylose (98.9% purity) was purchased from BOC Sciences. The activated sugar donors were prepared to 10 mM concentration with 0.05 M tris buffer and stored according to manufacturers' recommendations before use. SG materials were obtained from various sources with 90%+ purities. All SG materials were prepared at 20 mM with 90% DMSO and stored at ambient temperature. Final DMSO concentration in the reaction mixture was 4.5%.
Tris (tris(hydroxymethyl)aminomethane) buffer was prepared at 0.05 M, pH 7.3 and contained 3 mM each of MgCl2 and MnCl2 as co-factors.
Enzymes were produced via in vitro transcription-translation (IVTT) and activities were confirmed using UDP-glucose in a preliminary test. Bioconversion reaction was carried out in a total of 100 μL sealed vials containing the Tris buffer, 0.1 μmoles of SG acceptor, 0.2 μmoles of activated sugar donor, 1 μmoles of sucrose and 2 μg protein of the enzymes. To each vial, buffer, UDP-sugar donor, SG acceptor were added in that order before, finally, the enzymes were added. For each SG donor, a control was included to contain the same amounts of enzymes without UDP-sugar donors. […]
[…] Xylose modification of the -19C(O)-β-Glc residue was confirmed.
Activity of SEQ ID NOs: 2-4 is expressed relative to the activity of SEQ ID NO:1. […] [SEQ ID NO:3 was run more than once in this experiment,]

Molecule	overall activity relative to SEQ ID NO:1 (Table 8)	Activity relative to the activity of SEQ ID NO:1, Glucose (18 hrs)	Activity relative to the activity of SEQ ID NO:1, Glucose (48 hrs)	Activity relative to the activity of SEQ ID NO:1, Glucose (96 hrs)	Activity relative to the activity of SEQ ID NO:1, Xylose (18 hrs)	Activity relative to the activity of SEQ ID NO:1, Xylose (48 hrs)	Activity relative to the activity of SEQ ID NO:1, Xylose (96 hrs)
SEQ ID2: glycosyltransferase variant with a single serine to isoleucine change at position 152 relative to SEQ ID NO:1 (protein, listed as Oryza sativa) MDSGYSSSYAAAAGMHVVICPWLAFGHLLPCLDLAQRLASRGHRVSFVSTPRNISRLPPVRPALAPLVAFVALPLPRVEGLPDGAESTNDVPHDRPDMVELHRRAFDGLAAPFSEFLGTACADWVIVDVFHHWAAAAALEHKVPCAMMLLGIAHMIASIADRRLERAETESPAAAGQGRPAAAPTFEVARMKLIRTKGSSGMSLAERFSLTLSRSSLVVGRSCVEFEPETVPLLSTLRGKPITFLGLMPPLHEGRREDGEDATVRWLDAQPAKSVVYVALGSEVPLGVEKVHELALGLELAGTRFLWALRKPTGVSDADLLPAGFEERTRGRGVVATRWVPQMSILAHAAVGAFLTHCGWNSTIEGLMFGHPLIMLPIFGDQGPNARLIEAKNAGLQVARNDGDGSFDREGVAAAIRAVAVEEESSKVFQAKAKKLQEIVADMACHERYIDGFIQQLRSYKD	substantially overall increased activity	825%	578%	504%	459%	392%	312%
SEQ ID1: uridine 5′-diphospho (UDP) glycosyl transferase of 462 amino acids from Oryza sativa Japonica Group (protein, listed as Oryza sativa) MDSGYSSSYAAAAGMHVVICPWLAFGHLLPCLDLAQRLASRGHRVSFVSTPRNISRLPPVRPALAPLVAFVALPLPRVEGLPDGAESTNDVPHDRPDMVELHRRAFDGLAAPFSEFLGTACADWVIVDVFHHWAAAAALEHKVPCAMMLLGSAHMIASIADRRLERAETESPAAAGQGRPAAAPTFEVARMKLIRTKGSSGMSLAERFSLTLSRSSLVVGRSCVEFEPETVPLLSTLRGKPITFLGLMPPLHEGRREDGEDATVRWLDAQPAKSVVYVALGSEVPLGVEKVHELALGLELAGTRFLWALRKPTGVSDADLLPAGFEERTRGRGVVATRWVPQMSILAHAAVGAFLTHCGWNSTIEGLMFGHPLIMLPIFGDQGPNARLIEAKNAGLQVARNDGDGSFDREGVAAAIRAVAVEEESSKVFQAKAKKLQEIVADMACHERYIDGFIQQLRSYKD		100%	100%	100%	100%	100%	100%
SEQ ID3: glucosyltransferase enzyme, 27% identity to SEQ ID NO:1 (protein, listed as Solanum lycopersicum) MATNLRVLMFPWLAYGHISPFLNIAKQLADRGFLIYLCSTRINLESIIKKIPEKYADSIHLIELQLPELPELPPHYHTTNGLPPHLNPTLHKALKMSKPNFSRILQNLKPDLLIYDVLQPWAEHVANEQNIPAGKLLTSCAAVFSYFFSFRKNPGVEFPFPAIHLPEVEKVKIREILAKEPEEGGRLDEGNKQMMLMCTSRTIEAKYIDYCTELCNWKVVPVGPPFQDLITNDADNKELIDWLGTKHENSTVFVSFGSEYFLSKEDMEEVAFALELSNVNFIWVARFPKGEERNLEDALPKGFLERIGERGRVLDKFAPQPRILNHPSTGGFISHCGWNSAMESIDFGVPIIAMPIHNDQPINAKLMVELGVAVEIVRDDDGKIHRGEIAETLKSVVTGETGEILRAKVREISKNLKSIRDEEMDAVAEELIQLCRNSNKSK		81.5% and 148%	87.1% and 132%	99.1% and 148%	47.1% and 78.1%	51.0% and 78.6%	38.9% and 62.1%
